The values below come from PMC6374351, “The Fusion Activity of IM30 Rings Involves Controlled Unmasking of the Fusogenic Core” (Frontiers in Plant Science, 2019).

Usually stoichiometry N stands for the number of molecules, sites or subunits per partner or assembly.

Holding throughout (assay): SEC; Superdex 200 HR 16/60 GL, 4°C, 0.5 mL/min, 20 mM HEPES pH 7.6; apparent masses from Kav against marker proteins; apparent oligomeric state = extrapolated mass / calculated monomer mass (with His-tag)
The target of data set [1] is IM30 α1-3 (helices 1-3) (Synechocystis sp. PCC 6803).
Data set [2] addresses IM30 α1-4 (helices 1-4) (Synechocystis sp. PCC 6803).
Data set [3] deals with the molecule itself.

For “IM30 α1-3 (helices 1-3) (domain or fragment)”, the stoichiometry N in data set [1] was 1.76. With “IM30 α1-4 (helices 1-4) (domain or fragment)”, the stoichiometry N in data set [2] is 2.2.

B1: inner membrane-associated protein of 30 kDa (IM30) wt, Synechocystis sp. PCC 6803 (natural protein, UniProt Q55707 1-267, looked up)
chain: MGLFDRLGRVVRANLNDLVSKAEDPEKVLEQAVIDMQEDLVQLRQAVARTIAEEKRTEQRLNQDTQEAKKWEDRAKLALTNGEENLAREALARKKSLTDTAAAYQTQLAQQRTMSENLRRNLAALEAKISEAKTKKNMLQARAKAAKANAELQQTLGGLGTSSATSAFERMENKVLDMEATSQAAGELAGFGIENQFAQLEASSGVEDELAALKASMAGGALPGTSAATPQLEAAPVDSSVPANNASQDDAVIDQELDDLRRRLNNL
notes: IM30 (Vipp1) of the cyanobacterium Synechocystis sp; PCC 6803, wild type, helices 1-7; the last residue is 267 (α4-7 = amino acids 147-267); Forms rings of variable size; also called Vipp1; full-length protein; source: heterologously expressed and purified (as in Fuhrmann et al., 2009a)
On to B1, for which the binding result in data set [3] is listed as “binds”.
